This note sets out measurements from US20220073646A1 (Hoffmann-La Roche, published 2022).

Read-outs that look alike come from different tables or passages of the source.

Experiment [1] addresses T1, human FAP (His-tagged ectodomain) (human, UniProt Q12884 27-760).
T1 construct: SPR texts say 'human FAP' or 'His-tagged ... dimeric FAP'; also called hu FAP; human FAP (analyte 2)
Description: SPR, human FAP as second analyte. For orientation: In SPR one partner is held on a chip, and binding of the other changes the refractive index at the surface.

For experiment [2], the target named is T2, cynomolgus OX40 on activated cynomolgus PBMC (cynomolgus, UniProt P43489 29-214 (human entry)).
T2 construct: whole, on cells
T2 chain: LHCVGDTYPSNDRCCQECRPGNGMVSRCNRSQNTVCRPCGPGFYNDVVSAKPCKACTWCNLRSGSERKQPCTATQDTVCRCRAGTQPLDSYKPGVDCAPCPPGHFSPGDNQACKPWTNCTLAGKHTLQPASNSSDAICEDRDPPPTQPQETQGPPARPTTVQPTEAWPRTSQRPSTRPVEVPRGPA
The experiment in a line: flow cytometry, activated cynomolgus CD4 T cells. For orientation: A flow cytometer gives signals particle by particle.
Description: (§1) Then, plates were washed four times with 200 μL/well 4° C. FACS buffer. […] Plates where washed twice with 200 μL/well 4° C.

For experiment [3], the target named is T3, human OX40 on cells (human, UniProt P43489 29-277).
T3 sequence: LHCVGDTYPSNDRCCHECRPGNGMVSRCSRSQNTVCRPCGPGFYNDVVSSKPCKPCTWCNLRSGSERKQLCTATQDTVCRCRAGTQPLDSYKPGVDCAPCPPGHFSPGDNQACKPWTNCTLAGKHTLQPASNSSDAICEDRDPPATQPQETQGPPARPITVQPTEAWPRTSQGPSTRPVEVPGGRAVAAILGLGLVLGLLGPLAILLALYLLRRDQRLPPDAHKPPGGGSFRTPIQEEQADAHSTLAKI
The experiment in a line: flow cytometry, activated human CD4 T cells.

For experiment [4], the target named is T4, cynomolgus 4-1BB on activated cynomolgus PBMC (cynomolgus, UniProt Q07011 24-255 (human entry)).
T4 chain: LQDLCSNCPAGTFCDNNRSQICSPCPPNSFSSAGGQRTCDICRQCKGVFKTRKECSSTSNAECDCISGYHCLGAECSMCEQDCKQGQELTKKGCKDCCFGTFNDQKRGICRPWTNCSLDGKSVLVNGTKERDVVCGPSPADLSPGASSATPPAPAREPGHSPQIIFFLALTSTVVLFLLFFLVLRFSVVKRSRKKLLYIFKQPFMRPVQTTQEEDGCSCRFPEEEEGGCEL
Description: flow cytometry, activated cynomolgus CD8 T cells.
Description: (§2) Cells were washed twice with FACS buffer and resuspended in 100 μL/well FACS buffer supplied with 0.2 μg/mL DAPI to discriminated dead from living cells. Cells were immediately acquired using a 5-laser Fortessa (BD Bioscience with DIVA software). Gates were set on CD8⁺ and CD4⁺ T cells and the median fluorescence intensity (MFI) of the secondary detection antibody was used to analyze binding of primary antibodies. Using Graph Pad Prism (Graph Pad Software Inc.) data was baselined by subtracting the blank values (no primary antibody added) and the EC₅₀ values were calculated using non-linear regression curve fit (robust fit).

Experiment [5] addresses T5, hu4-1BB-SNAP fusion protein on Hek293 EBNA cells (human, UniProt Q07011 24-255, labeled with the FRET donor Terbium).
T5 construct: not shown: SNAP tag
Description: cell FRET competition against d2-labeled anti-4-1BB tracer, 4 h.

For experiment [6], the target named is T6, mouse 4-1BB on activated mouse splenocytes (mouse, UniProt P20334 24-256). Description: flow cytometry, activated mouse T cells.
Description: (§3) Cells were incubated for 30 min at 4° C., washed twice with 200 μL/well FACS-buffer and resuspended for fixation with 50 μL/well DPBS containing 1% (v/v) formaldehyde. The next day cells were resuspended in 200 μL/well FACS buffer and acquired using the 2-laser Cantoll (BD Bioscience with DIVA software) or 5-laser Fortessa (BD Bioscience with DIVA software). Gates were set on CD8⁺ and CD4⁺ T cells and the median fluorescence intensity (MFI) of the secondary detection antibody was used to analyze binding of primary antibodies. Using Graph Pad Prism (Graph Pad Software Inc.) data was baselined by subtracting the blank values (no primary antibody added) and the EC₅₀ values were calculated using non-linear regression curve fit (robust fit).
Experiment [7] has as its target recombinant cynomolgus 4-1BB Fc(kih) (cynomolgus, UniProt P0DOX5 223-449 = IgG part, biotin on C-terminal Avi tag where used biotinylated). The experiment in a line: SPR, captured IgG, cyno 4-1BB Fc(kih) analyte.
Description: (§4) All SPR experiments were performed on a Biacore T200 at 25° C. with HBS-EP as running buffer (0.01 M HEPES pH 7.4, 0.15 M NaCl, 3 mM EDTA, 0.005% Surfactant P20, Biacore, Freiburg/Germany).
Anti-human Fab antibody (Biacore, Freiburg/Germany) was directly coupled on a CM5 chip at pH 5.0 using the standard amine coupling kit (Biacore, Freiburg/Germany). The immobilization level was approximately 9000 RU.
Experiment [8] concerns the target T7, human 4-1BB on cells (human, UniProt Q07011 24-255).
T7 construct: also called HeLa-hu4-1BB-NF-kB-luc clone 26
Description: flow cytometry, activated human CD8+ T cells.
Description: (§5) Plates were centrifuged 4 minutes with 400×g at 4° C. and supernatant was discarded. […] Afterwards cells were washed once with 200 μL/well cold FACS buffer (DPBS supplied with 2% (v/v) FBS, 5 mM EDTA pH8 (Amresco, Cat. No. E177) and 7.5 mM sodium azide (Sigma-Aldrich S2002)). […] Cells were washed four times with 200 μL/well 4° C.
Cells were washed twice with 200 μL FACS buffer/well and fixated by resuspending in 50 μL/well DPBS containing 1% Formaldehyde (Sigma, HT501320-9.5L). Cells were acquired the same or next day using 3-laser MACSQuant Analyzer 10 (Miltenyi Biotech). Gates were set on CD8⁺ and CD4⁺ T cells and the geo mean of fluorescence intensity (MFI) of the secondary detection antibody was used to analyze binding of primary antibodies. Using Graph Pad Prism (Graph Pad Software Inc.) data was baselined by subtracting the blank values (no primary antibody added) and the EC₅₀ values were calculated using non-linear regression curve fit (robust fit).

The target of experiment [9] is T8, human fibroblast activation protein (huFAP) on cells (human, UniProt Q12884 1-760).
T8 construct: also called NIH/3T3-huFAP clone 39; NIH/3T3-huFAP clone 19
Description: flow cytometry, WM-266-4 and NIH/3T3-huFAP clone 19.

Experiment [10] addresses T4, cynomolgus 4-1BB on activated …. The experiment in a line: flow cytometry, activated cynomolgus CD4 T cells.
Description: as §2
Experiment [11] concerns the target T9, recombinant human 4-1BB Fc(kih) (human, UniProt P0DOX5 223-449 = IgG part, biotin on C-terminal Avi tag where used biotinylated).
T9 construct: also called hu4-1BB; biotinylated human 4-1BB
The experiment in a line: SPR, captured IgG, 4-1BB Fc(kih) analyte.
Description: as §4
Anti-human Fab antibody (Biacore, Freiburg/Germany) was directly coupled on a CM5 chip at pH 5.0 using the standard amine coupling kit (Biacore, Freiburg/Germany). The immobilization level was approximately 7500 RU. […] The dissociation was monitored for 120 seconds. Bulk refractive index differences were corrected for by subtracting the response obtained on reference flow cell.

Experiment [12] addresses T7, human 4-1BB on cells. Description: flow cytometry, activated human CD8 T cells.
Description: as §5
Cells were washed twice with 200 μL FACS buffer/well and fixated by resuspending in 50 μL/well DPBS containing 1% Formaldehyde (Sigma, HT501320-9.5L). Cells were acquired the same or next day using a 3-laser Canto II (BD Bioscience with DIVA software) or a 5-laser Fortessa (BD Bioscience with DIVA software) or 3-laser MACSQuant Analyzer 10 (Miltenyi Biotech). Gates were set on CD8⁺ and CD4⁺ T cells and the median fluorescence intensity (MFI) or geo mean of fluorescence intensity of the secondary detection antibody was used to analyze binding of primary antibodies. Using Graph Pad Prism (Graph Pad Software Inc.) data was baselined by subtracting the blank values (no primary antibody added) and the EC50 values were calculated using non-linear regression curve fit (robust fit).
Experiment [13] deals with T7, human 4-1BB on cells. Description: cell-based or functional assay.
The target of experiment [14] is T10, recombinant murine 4-1BB Fc(kih) (murine, UniProt P0DOX5 223-449 = IgG part, biotin on C-terminal Avi tag where used biotinylated).
T10 construct: also called mu4-1BB
The experiment in a line: SPR avidity format, murine 4-1BB Fc(kih) on SA chip.
Description: (§6) Immobilization levels up to 100 resonance units (RU) were used. […] Complex dissociation was monitored for 220 seconds. Bulk refractive index differences were corrected for by subtracting the response obtained in a reference flow cell, where no protein was immobilized.

The target of experiment [15] is T11, recombinant murine 4-1BB AcTEV (murine, UniProt P20334 24-187).
T11 construct: murine 4-1BB Fc(kih) cleaved with AcTEV protease, Fc removed
T11 sequence: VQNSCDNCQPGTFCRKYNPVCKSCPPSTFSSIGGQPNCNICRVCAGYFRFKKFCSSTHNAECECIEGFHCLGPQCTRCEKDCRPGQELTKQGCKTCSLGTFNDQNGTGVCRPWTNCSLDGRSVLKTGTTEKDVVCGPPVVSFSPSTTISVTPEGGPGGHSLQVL
The experiment in a line: SPR, captured IgG, murine 4-1BB AcTEV analyte.
Description: as §4
Anti-human Fc antibody (Biacore, Freiburg/Germany) was directly coupled on a CM5 chip at pH 5.0 using the standard amine coupling kit (Biacore, Freiburg/Germany). The immobilization level was about 7500 RU. […] The dissociation was monitored for 120 seconds. Bulk refractive index differences were corrected for by subtracting the response obtained on reference flow cell.

The target in experiment [16] is T6, mouse 4-1BB on activated mouse …. The experiment in a line: flow cytometry, activated murine CD8 T cells.
Description: as §3
In experiment [17] the target is T7, human 4-1BB on cells. The experiment in a line: flow cytometry, activated human T cells.
The target in experiment [18] is T9, recombinant human 4-1BB Fc(kih). The experiment in a line: SPR.
Description: as §4, §6
In experiment [19] the target is T6, mouse 4-1BB on activated mouse …. Description: flow cytometry, activated murine CD4 T cells.
Description: as §3
Experiment [20] concerns the target T3, human OX40 on cells. Description: cell-based or functional assay.
Experiment [21] concerns the target T8, human fibroblast activation protein …. Description: flow cytometry, NIH/3T3-huFAP clone 39 cells.
The target in experiment [22] is T12, recombinant human OX40 His (human).
T12 construct: ectodomain with avi and hexahistidine tag; also called human Ox40 avi His
T12 chain: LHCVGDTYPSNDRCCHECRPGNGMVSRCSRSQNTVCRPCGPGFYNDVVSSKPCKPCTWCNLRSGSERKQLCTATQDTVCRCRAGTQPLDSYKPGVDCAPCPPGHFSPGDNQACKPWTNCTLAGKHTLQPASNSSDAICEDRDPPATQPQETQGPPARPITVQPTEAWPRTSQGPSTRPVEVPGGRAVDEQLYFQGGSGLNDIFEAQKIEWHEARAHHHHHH
Description: SPR, captured IgG, OX40 His analyte.
Description: as §4
Setup 2) Anti-human Fc antibody (Biacore, Freiburg/Germany) was directly coupled on a CM5 chip at pH 5.0 using the standard amine coupling kit (Biacore, Freiburg/Germany). The immobilization level was approximately 8000 RU. […] The dissociation was monitored for 120 seconds. Bulk refractive index differences were corrected for by subtracting the response obtained on reference flow cell.

In experiment [23] the target is recombinant cynomolgus OX40 Fc(kih) (cynomolgus, UniProt P0DOX5 223-449 = IgG part, biotin on C-terminal Avi tag where used biotinylated). The experiment in a line: SPR avidity format, antigen on SA chip.
Description: as §4
Immobilization levels up to 800 resonance units (RU) were used.
The target in experiment [24] is T3, human OX40 on cells. The experiment in a line: cell-based or functional assay. The source holds these as a separate data set.
The target of experiment [25] is T2, cynomolgus OX40 on activated cynomolgus …. The experiment in a line: flow cytometry, activated cynomolgus CD4 T cells.
Description: Centrifugation was performed at 520×g, without brake at room temperature for 30 minutes. Adjacent centrifugation at 150×g at room temperature for 15 minutes was performed to reduce platelets count followed by several centrifugation steps with 400×g at room temperature for 10 minutes to wash PBMC with sterile DPBS.
as §1
The target of experiment [26] is T13, recombinant cynomolgus GITR Fc(kih) (cynomolgus, UniProt P0DOX5 223-449 = IgG part, biotin on C-terminal Avi tag where used biotinylated).
T13 construct: also called cy GITR-Fc
The experiment in a line: SPR ProteOn XPR36, biotinylated GITR-Fc on NLC chip, Fab analyte.
Description: (§7) Immobilization of antigens (ligand): Recombinant antigens were diluted with PBST (10 mM phosphate, 150 mM sodium chloride pH 7.4, 0.005% Tween 20) to 10 μg/ml, then injected at 30 μl/minute in vertical orientation. Injection of analytes: For ‘one-shot kinetics’ measurements, injection direction was changed to horizontal orientation, two-fold dilution series of purified Fab were injected simultaneously along separate channels 1-5, with association times of 200 s, and dissociation times of 240 s, respectively. Buffer (PBST) was injected along the sixth channel to provide an “in-line” blank for referencing. Association rate constants (kon) and dissociation rate constants (koff) were calculated using a simple one-to-one Langmuir binding model in ProteOn Manager software by simultaneously fitting the association and dissociation sensorgrams. The equilibrium dissociation constant (KD) was calculated as the ratio koff/kon.

In experiment [27] the target is T14, recombinant human GITR Fc(kih) (human, UniProt P0DOX5 223-449 = IgG part, biotin on C-terminal Avi tag where used biotinylated).
T14 construct: also called hu GITR-Fc; human monomeric GITR-Fc fusion
The experiment is described as above.
Description: as §7

For experiment [28], the target named is T15, recombinant murine GITR Fc(kih) (murine, UniProt P0DOX5 223-449 = IgG part, biotin on C-terminal Avi tag).
T15 construct: also called mu GITR-Fc
The experiment in a line: SPR ProteOn XPR36, Fab as analyte.
Description: as §7

B1: OX40(49B4)/DP47 P329GLALA IgG1 4+2 (bispecific antibody)
heavy: not shown
light 1: DIQMTQSPSTLSASVGDRVTITCRASQSISSWLAWYQQKPGKAPKLLIYDASSLESGVPSRFSGSGSGTEFTLTISSLQPDDFATYYCQQYSSQPYTFGQGTKVEIKRTVAAPSVFIFPPSDRKLKSGTASVVCLLNNFYPREAKVQWKVDNALQSGNSQESVTEQDSKDSTYSLSSTLTLSKADYEKHKVYACEVTHQGLSSPVTKSFNRGEC
light 2: not shown
notes: also called 4+2 (49B4/DP47); untargeted 4+2 construct
B1: the binding result in experiment [1] was “no binding (tested: 250 nM)”. Further, the EC50 – broadly, the midpoint of the concentration-response curve – in experiment [2] was determined as 0.07 nM; in the experiment with human OX40 on cells [3], 0.11 nM.

B2: 12B3 P329GLALA IgG1 (antibody, V domains shown)
VH: QVQLVQSGAEVKKPGSSVKVSCKASGGTFSSYAISWVRQAPGQGLEWMGGIIPIFGTANYAQKFQGRVTITADKSTSTAYMELSSLRSEDTAVYYCARSEFRFYADFDYWGQGTTVTVSS
VL: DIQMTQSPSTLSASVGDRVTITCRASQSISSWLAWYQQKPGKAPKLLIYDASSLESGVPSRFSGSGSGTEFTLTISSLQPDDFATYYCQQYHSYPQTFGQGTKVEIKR
notes: anti-4-1BB; also called 12B3 IgG; 12B3 huIgG1 P329G LALA
Regarding B2, the concentration for a half-maximal effect (EC50) in experiment [4] turned out to be 0.47 nM; in experiment [5], 1.4 nM; with human 4-1BB on cells [8], 0.4 nM; in experiment [10] it was 0.59 nM; with human 4-1BB on cells [12], 0.95 nM. For the same molecule, the “bracketed interval of the EC50 (not explained)” value in [5] lay within 0.9 to 2.1 nM. Besides, the binding result in [6] and in experiment [9] was “no binding” in each case. The Kd (in general, the equilibrium constant for the complex coming apart) is 20 nM in experiment [7] and 30 nM in experiment [11]. Further, the koff (commonly a measure of how fast the partners let go of each other) is 0.00078 s⁻¹ in experiment [7] and 0.001 s⁻¹ in experiment [11]. The association rate constant (kon) (usually a measure of how fast the partners come together) in experiment [7] came to 38000 M⁻¹ s⁻¹; in experiment [11], 34000 M⁻¹ s⁻¹. Besides, the “EC50 of increase of IFNγ secretion in activated CD8+ T cells (surface-immobilized IgG)” value with human 4-1BB on cells [13] turned out to be 0.07 nM.

B3: 20G2 P329GLALA IgG1 (antibody, V domains shown)
VH: QVQLVQSGAEVKKPGSSVKVSCKASGGTFSSYAISWVRQAPGQGLEWMGGIIPIFGTANYAQKFQGRVTITADKSTSTAYMELSSLRSEDTAVYYCARSYYWESYPFDYWGQGTTVTVSS
VL: DIQMTQSPSTLSASVGDRVTITCRASQSISSWLAWYQQKPGKAPKLLIYDASSLESGVPSRFSGSGSGTEFTLTISSLQPDDFATYYCQQQHSYYTFGQGTKVEIKR
notes: also called anti-mouse 4-1BB clone 20G2 huIgG1 P329G LALA
For B3, the binding result in experiment [14] is on record as “binds”; with human 4-1BB on cells [17], “no binding”; in experiment [18], “no binding”. For the same molecule, the Kd in [15] worked out at 14 nM. In addition, the koff in experiment [15] is 0.00034 s⁻¹. In addition, the kon in [15] worked out at 24000 M⁻¹ s⁻¹. The concentration giving a half-maximal response (EC50) in [16] was determined as 16.4 nM; in experiment [19], 10.1 nM.

B4: 1G4 P329GLALA IgG1 (antibody, V domains shown)
VH: QVQLVQSGAEVKKPGSSVKVSCKASGGTFSSYAISWVRQAPGQGLEWMGGIIPIFGTANYAQKFQGRVTITADKSTSTAYMELSSLRSEDTAVYYCAREYGSMDYWGQGTTVTVSS
VL: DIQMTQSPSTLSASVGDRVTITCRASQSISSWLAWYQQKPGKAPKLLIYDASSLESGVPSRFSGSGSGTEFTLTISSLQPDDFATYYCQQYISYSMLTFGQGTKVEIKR
notes: anti-OX40
On to B4, for which, in the experiment with human OX40 on cells [20], the “EC50 of rescuing suboptimal TCR stimulation with plate-immobilized anti-OX40 binder (preactivated human CD4 T cells)” value amounted to 0.697 nM. The binding result in [21] is on record as “no binding”. Also, in experiment [22], the dissociation constant Kd is 250 nM, the off-rate (koff) worked out at 0.57 s⁻¹ and the kon was 2.3e+06 M⁻¹ s⁻¹. Further, in [23], the binding result is “binds”. In addition, in the experiment with human OX40 on cells [24], the “EC50 of NFκB activation in HeLa_hOx40_NFκB_luc1 reporter cells with secondary anti-human IgG Fcγ antibody” value was 3.59 nM. In experiment [25], this molecule came in with a concentration giving a half-maximal response (EC50) of 48.2 nM.

B5: clone 8A06 purified Fab (Fab, V domains shown)
VH: QVQLVQSGAEVKKPGSSVKVSCKASGGTFSSYAISWVRQAPGQGLEWMGGIIPIFGTANYAQKFQGRVTITADKSTSTAYMELSSLRSEDTAVYYCARGYYAIDYWGQGTTVTVSS
VL: SSELTQDPAVSVALGQTVRITCQGDSLRSYYASWYQQKPGQAPVLVIYGKNNRPSGIPDRFSGSSSGNTASLTITGAQAEDEADYYCNSPQTSGSAVFGGGTKLTVL
notes: bacterially expressed Fab of the lambda-DP88 library with CH1/CL and tags; also called 8A06 (Fab-format)
For the molecule B5, the equilibrium dissociation constant (Kd) in experiment [26] was 67 nM; in experiment [27] it was 4.4 nM. The binding result in experiment [28] is reported as “no binding”.
